Assay results reported in the RNAGym collection of RNA variant scans (doi:10.1101/gr.219683.116).

B1: mRNA-splicing (parent)
chain: AGUUGCUGCUGGGAGCUCCAGCACAGUGAAAUGGACAGAAGGGCAGAGCAA

Variants of: B1
Test: exon inclusion enrichment index; higher = more inclusion; WT1 exon 5 minigene, HEK293

Variant | exon inclusion enrichment index
U32G G33C | 0.143
U32G G33A | 0.042
U32G G33U | 0.0308
G41A G42A | 0.141
G41A G42C | 0.419
G41A G42U | 0.107
C44U A45G | 0.0801
C44U A45C | 0.266
C44U A45U | 0.0412
G46A A47U | 0.185
G46A A47C | 0.547
G46A A47G | 0.0433
C22G A23U | 0.496
C22G A23G | 1.07
C22G A23C | 1.36
A30G A31G | 0.0117
A30G A31U | 0.0224
A30G A31C | 0.126
A20G G21C | 2.64
A20G G21A | 2.89
A20G G21U | 2.37

Variant | exon inclusion enrichment index
A45U G46A | 0.0722
A45U G46U | 0.0239
A45U G46C | 0.0947
G34A A35U | 0.0211
G34A A35G | 0.0204
G34A A35C | 0.0806
G34C A35U | 0.0271
G34C A35G | 0.0695
G34C A35C | 0.00408
C24U | 0.0472
C24G | 0.0337
C24A | 0.223
G38C A39U | 0.00812
G38C A39C | 0.158
G38C A39G | 0.21
G41C | 0.866
G41U | 0.16
G41A | 0.0829
C36A A37U | 0.0531
C36A A37C | 0.209
C36A A37G | 0.0199

Variant | exon inclusion enrichment index
A25G G26A | 0.573
A25G G26C | 0.272
A25G G26U | 0.326
G26U | 0.137
G26A | 0.0943
G26C | 0.156
G38U A39C | 0.125
G38U A39G | 0.0472
G38U A39U | 0.000945
G42C G43C | 0.757
G42C G43U | 0.634
G42C G43A | 0.623
G21C C22A | 2.18
G21C C22U | 2.41
G21C C22G | 3.35
A45G G46C | 0.331
A45G G46U | 0.121
A45G G46A | 0.84
U27G G28U | 0.00139
U27G G28A | 0.354
U27G G28C | 0.101

Variant | exon inclusion enrichment index
G21U C22A | 1.05
G21U C22G | 2.39
G21U C22U | 0.89
U32C G33C | 0.303
U32C G33A | 0.0354
U32C G33U | 0.0526
A37C G38U | 0.0604
A37C G38C | 0.217
A37C G38A | 0.152
G43A | 0.774
G43U | 0.11
G43C | 0.209
A31C | 0.288
A31G | 0.255
A31U | 0.159
C22U | 1.27
C22G | 2.76
C22A | 2.09
A30C A31U | 0.103
A30C A31G | 0.41
